T1: centromere B (human, UniProt P07199 1-599)
T1 sequence (looked up): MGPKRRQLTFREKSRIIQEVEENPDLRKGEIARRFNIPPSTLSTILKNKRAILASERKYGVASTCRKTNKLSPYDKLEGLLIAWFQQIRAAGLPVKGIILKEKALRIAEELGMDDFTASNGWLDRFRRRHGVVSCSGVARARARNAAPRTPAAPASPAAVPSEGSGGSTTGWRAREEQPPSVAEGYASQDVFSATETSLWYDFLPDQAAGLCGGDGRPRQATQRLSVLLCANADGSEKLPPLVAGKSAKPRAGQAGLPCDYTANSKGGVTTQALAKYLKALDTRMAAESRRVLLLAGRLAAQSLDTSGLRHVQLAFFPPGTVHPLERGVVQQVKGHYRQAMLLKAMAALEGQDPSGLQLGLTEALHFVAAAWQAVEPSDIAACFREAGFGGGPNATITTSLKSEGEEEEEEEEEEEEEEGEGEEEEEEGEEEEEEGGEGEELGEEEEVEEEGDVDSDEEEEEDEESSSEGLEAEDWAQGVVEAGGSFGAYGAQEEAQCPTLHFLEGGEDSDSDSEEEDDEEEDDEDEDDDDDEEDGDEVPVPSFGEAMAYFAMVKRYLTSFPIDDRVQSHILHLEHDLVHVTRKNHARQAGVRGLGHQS

T2: SS-B/La (human, UniProt P05455 1-408, limits assumed)
T2 sequence (looked up): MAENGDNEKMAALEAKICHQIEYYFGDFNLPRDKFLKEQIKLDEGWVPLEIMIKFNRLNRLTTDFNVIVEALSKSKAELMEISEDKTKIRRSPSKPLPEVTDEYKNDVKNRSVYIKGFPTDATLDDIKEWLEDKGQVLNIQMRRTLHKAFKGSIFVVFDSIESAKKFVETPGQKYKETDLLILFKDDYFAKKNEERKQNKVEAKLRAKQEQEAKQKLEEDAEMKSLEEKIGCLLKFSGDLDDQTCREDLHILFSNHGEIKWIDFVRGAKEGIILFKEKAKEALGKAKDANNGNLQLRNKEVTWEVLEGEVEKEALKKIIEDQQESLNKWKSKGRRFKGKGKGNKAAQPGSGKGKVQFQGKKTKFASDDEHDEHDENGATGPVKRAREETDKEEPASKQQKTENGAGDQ

T3: Jo-1 (human, UniProt P12081 1-509, limits assumed)
T3 sequence (looked up): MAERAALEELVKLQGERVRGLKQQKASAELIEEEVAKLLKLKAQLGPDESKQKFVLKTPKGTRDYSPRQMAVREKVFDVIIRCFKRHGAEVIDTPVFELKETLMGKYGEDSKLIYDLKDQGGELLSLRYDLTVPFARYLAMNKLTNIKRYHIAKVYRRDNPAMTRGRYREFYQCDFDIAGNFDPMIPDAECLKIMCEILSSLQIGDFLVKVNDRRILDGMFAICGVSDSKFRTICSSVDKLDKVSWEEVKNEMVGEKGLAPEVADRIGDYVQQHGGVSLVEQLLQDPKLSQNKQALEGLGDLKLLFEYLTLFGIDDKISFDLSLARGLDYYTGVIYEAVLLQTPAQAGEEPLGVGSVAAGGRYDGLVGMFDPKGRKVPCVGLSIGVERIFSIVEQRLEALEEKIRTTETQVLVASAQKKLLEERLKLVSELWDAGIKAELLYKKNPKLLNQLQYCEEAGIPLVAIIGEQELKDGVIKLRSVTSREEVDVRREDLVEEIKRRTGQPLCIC


Key:
[1] = molecular target: T4, BG505 SOSIP.664 gp140 trimer (HIV isolate BG505); experiment: complex used as bait in flow cytometry sorting
T4 construct: Soluble Env trimer made in HEK293F cells with co-transfected furin (cleaved gp120 and gp41 ectodomain, disulfide-linked); His- and Avi-tagged (biotinylated) versions were also made; also called BG505 SOSIP trimer; BG505 SOSIP.664-His gp140

[2] = molecular target: BG505 N279A; experiment: cell-based or functional assay
[3] = molecular target: BG505 Env on BG505 pseudovirus (HIV isolate BG505); experiment: cell-based or functional assay
[4] = molecular target: JR-CSF Env on JR-CSF pseudovirus; experiment: cell-based or functional assay
[5] = molecular target: BG505 K282A; experiment: cell-based or functional assay
[6] = molecular target: BG505 N279A; experiment: ELISA, gp120 captured from lysed virions
[7] = molecular target: T5, JR-CSF gp120 captured from lysed virions (HIV isolate JR-CSF, UniProt P20871 32-503); experiment: ELISA, gp120 captured from lysed virions
T5 construct: gp120 from NP40-lysed pseudovirus, captured by an anti-C5 gp120 antibody

[8] = molecular target: BG505 G472A; experiment: ELISA, gp120 captured from lysed virions
[9] = molecular target: BG505 K282A; experiment: ELISA, gp120 captured from lysed virions
[10] = molecular target: BG505 D368R recombinant gp120 protein; experiment: ELISA on recombinant gp120
[11] = molecular target: T6, BG505 WT recombinant gp120 protein (HIV isolate BG505); experiment: ELISA on recombinant gp120
T6 construct: also called WT protein

[12] = molecular target: T1, centromere B; experiment: single autoantigen ELISA (Aesku), cut-off of the manufacturer
Method: (§1) Single antigen ELISA assays for SSA/Ro, SS-B/La, Sm, ribonucleoprotein (RNP), Jo-1, double-stranded DNA, centromere B, and histones were purchased from Aesku Diagnostics (Oakland, Calif.). The 96 wells were separately coated with these eight cellular and nuclear antigens for the qualitative detection of mAbs reactivity. A cut-off calibrator was provided by the manufacturer. The negative control was diluted human serum.

[13] = molecular target: T2, SS-B/La; experiment: as above
Method: as §1

[14] = molecular target: T3, Jo-1; experiment: as above
Method: as §1

[15] = molecular target: T4, BG505 SOSIP.664 gp140 trimer; experiment: single particle negative stain electron microscopy

| Binder | binding result [1] | IC50, pseudovirus neutralization [2] [µg/mL] | IC50, pseudovirus neutralization [3] [µg/mL] | IC50, pseudovirus neutralization [4] [µg/mL] | IC50, pseudovirus neutralization [5] [µg/mL] | EC50 [6] [µg/mL] | EC50 [7] [µg/mL] | EC50 [8] [µg/mL] | EC50 [9] [µg/mL] | EC50 (read off the curve) [10] [µg/mL] | EC50 (read off the curve) [11] [µg/mL] | binding result [12] | binding result [13] | binding result [14] | binding result [15] |
| --- | --- | --- | --- | --- | --- | --- | --- | --- | --- | --- | --- | --- | --- | --- | --- |
| NC-Cow1 (antibody, detected with anti-human IgG; also called d238-P1B4_NC-Cow1; mature NC-Cow1 HC + mature NC-Cow1 LC) VH: QVQLRESGPSLMKPSQTLSLTCTVSGSSLNDKSVGWVRQAPGKALQWLGSVDTSGNTDYNPGLKSRLSITKDNSKSRISLTVTGMTTEDSATYYCITAHQKTNKKECPEDYTYNPRCPQQYGWSDCDCMGDRFGGYCRQDGCSNYIHRSTYEWYVSAWGQGLLVTVSS VL: SYELTQPSSVSGSLGQRVSVTCSGSSSNVGNGYVSWYQLIPGSAPRTIIYGDTSRASGVPERFSGSRSGNTATLTISSLQAEDEADFFCASPDDSSSNAVFGSGTTLTVL | binds | 0.012 | 0.006 | 0.821 | 0.02 | 0.11 | 0.075 | 0.37 | 1.18 | ~0.04 | ~0.06 | no binding (tested: 100 µg/ml) | no binding (tested: 100 µg/ml) | no binding (tested: 100 µg/ml) |  |
| NC-Cow1 Fab (Fab, Fab used for negative stain electron microscopy; also called cow Fab NC-Cow1) VH: QVQLRESGPSLMKPSQTLSLTCTVSGSSLNDKSVGWVRQAPGKALQWLGSVDTSGNTDYNPGLKSRLSITKDNSKSRISLTVTGMTTEDSATYYCITAHQKTNKKECPEDYTYNPRCPQQYGWSDCDCMGDRFGGYCRQDGCSNYIHRSTYEWYVSAWGQGLLVTVSS VL: SYELTQPSSVSGSLGQRVSVTCSGSSSNVGNGYVSWYQLIPGSAPRTIIYGDTSRASGVPERFSGSRSGNTATLTISSLQAEDEADFFCASPDDSSSNAVFGSGTTLTVL |  |  |  |  |  |  |  |  |  |  |  |  |  |  | binds |
| NC-Cow2 Fab (Fab, Fab used for negative stain electron microscopy; also called cow Fab NC-Cow2) VH: KVQLRESGPSLVKPSQTLSLTCMVSGSSLSDKAVGWVRQAPGKALEWLGIISAGGNRGYNSGLRSRLTISKDNSKNEVSLRVRSVTTEDSATYFCGTVHQKTQRKPICPDGYSDDSTLRYYSRCSDRDCWRCTGTTYYDTCQCGTYTWIDTHELHVDAWGQGLLVTVSS VL: QAVLNQPSSVSGSLGQRVSITCSGSSSNVGNGYVSWYQLIPGSAPRTLIYGDTSRASGVPDRFSGSRSGNTATLTISSLQAEDEADYFCASAEDSSSNAVFGSGTTLTVL |  |  |  |  |  |  |  |  |  |  |  |  |  |  | binds |
